Data: paper PMC8494293, “Relief of ParB autoinhibition by parS DNA catalysis and recycling of ParB by CTP hydrolysis promote bacterial centromere assembly” (Science Advances, 2021)
One block for each molecule: values may come before it.

Tests used:
ParB(E111Q) [1] = target: T1, ParB(E111Q) (Bacillus subtilis, UniProt P26497, E111Q); assay: N-gate closure by BMOE cross-linking (T22C); BLI DNA loading; type: biochemical
T1 construct: gene spo0J; full-length, untagged
T1 sequence (P26497 1-282 E111Q): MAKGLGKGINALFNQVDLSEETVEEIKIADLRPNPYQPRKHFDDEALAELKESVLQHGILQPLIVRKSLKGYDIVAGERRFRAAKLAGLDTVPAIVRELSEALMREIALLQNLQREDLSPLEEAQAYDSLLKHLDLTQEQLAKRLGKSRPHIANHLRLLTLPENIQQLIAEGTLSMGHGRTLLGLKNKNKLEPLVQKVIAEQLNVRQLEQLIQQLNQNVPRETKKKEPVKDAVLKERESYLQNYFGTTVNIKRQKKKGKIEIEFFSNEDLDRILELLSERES

ParB(E78Q) [2] = target: T2, ParB(E78Q) (Bacillus subtilis, UniProt P26497, E78Q); assay: as above; type: biochemical
T2 construct: gene spo0J; full-length, untagged
T2 sequence (P26497 1-282 E78Q): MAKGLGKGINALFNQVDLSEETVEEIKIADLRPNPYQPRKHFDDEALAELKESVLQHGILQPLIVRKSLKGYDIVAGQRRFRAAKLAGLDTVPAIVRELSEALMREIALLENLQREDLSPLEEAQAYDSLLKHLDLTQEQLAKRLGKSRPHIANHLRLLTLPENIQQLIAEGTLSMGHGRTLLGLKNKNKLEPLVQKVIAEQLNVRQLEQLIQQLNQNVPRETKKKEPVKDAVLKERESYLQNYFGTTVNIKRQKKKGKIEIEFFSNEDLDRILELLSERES

ParB [3] = target: T3, ParB (Bacillus subtilis, UniProt P26497); assay: BLI of ParB loading on and dissociation from parS DNA with nucleotide; N-gate cross-linking; type: biochemical
T3 construct: gene spo0J; full-length, untagged
T3 sequence (P26497 1-282): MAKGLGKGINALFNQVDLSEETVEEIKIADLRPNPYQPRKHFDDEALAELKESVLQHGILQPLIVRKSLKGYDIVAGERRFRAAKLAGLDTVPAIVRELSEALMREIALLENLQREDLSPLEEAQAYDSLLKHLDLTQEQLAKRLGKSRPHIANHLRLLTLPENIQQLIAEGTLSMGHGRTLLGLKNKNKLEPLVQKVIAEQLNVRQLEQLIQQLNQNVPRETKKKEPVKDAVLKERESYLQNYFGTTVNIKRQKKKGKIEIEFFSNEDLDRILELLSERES

ParB(E78Q) [4] = target: T2, ParB(E78Q); assay: ITC; also N-gate cross-linking and BLI DNA loading; no appreciable hydrolysis; type: binding
ParB(E111Q) [5] = target: T1, ParB(E111Q); assay: as above; type: binding
ParB [6] = target: T3, ParB; assay: ITC; also CTP hydrolysis (malachite green), N-gate cross-linking and BLI DNA loading; type: binding
[7] = target: T4, ParB(T22C, E78Q)-HT, P26497; assay: in vivo BMOE cysteine cross-linking (SDS-PAGE, HaloTag TMR in-gel fluorescence, band quantification); conditions: chain shown with the change, read off a plot
T4 chain: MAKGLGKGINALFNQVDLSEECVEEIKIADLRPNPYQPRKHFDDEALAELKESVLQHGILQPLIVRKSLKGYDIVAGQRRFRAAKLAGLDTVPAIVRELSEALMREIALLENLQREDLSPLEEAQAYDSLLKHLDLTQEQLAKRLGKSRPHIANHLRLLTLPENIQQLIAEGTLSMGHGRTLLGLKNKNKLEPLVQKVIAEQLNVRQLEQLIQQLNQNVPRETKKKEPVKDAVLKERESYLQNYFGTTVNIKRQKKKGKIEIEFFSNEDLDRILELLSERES

[8] = target: the molecule itself; assay: cross-linking; in vitro BMOE (1 mM) cysteine cross-linking, 10 uM ParB, with or without 1 mM CTP or CTPγS and 1 uM 40-bp parS DNA, 150 mM NaCl, 50 mM tris-HCl pH 7.5, 5 mM MgCl2, room temperature; SDS-PAGE, Coomassie
[9] = target: T5, ParB(R105C, H133C, E78Q)-HT, P26497; assay: in vivo BMOE cysteine cross-linking (SDS-PAGE, HaloTag TMR in-gel fluorescence, band quantification); conditions: chain shown with the change, Inter XL plus Inter 2XL species, read off a plot
T5 chain: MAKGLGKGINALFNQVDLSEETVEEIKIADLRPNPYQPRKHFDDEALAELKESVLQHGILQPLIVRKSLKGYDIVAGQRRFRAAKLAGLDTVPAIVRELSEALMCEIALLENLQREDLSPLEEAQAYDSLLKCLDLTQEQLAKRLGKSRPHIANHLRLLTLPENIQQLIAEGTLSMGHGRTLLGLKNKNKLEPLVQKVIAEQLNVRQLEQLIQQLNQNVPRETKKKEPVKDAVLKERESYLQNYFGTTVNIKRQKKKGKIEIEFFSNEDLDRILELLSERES

[10] = target: T6, ParB(R105C, H133C, E111Q)-HT, P26497; assay: as above; conditions: chain shown with the change, Inter XL plus Inter 2XL species, read off a plot
T6 chain: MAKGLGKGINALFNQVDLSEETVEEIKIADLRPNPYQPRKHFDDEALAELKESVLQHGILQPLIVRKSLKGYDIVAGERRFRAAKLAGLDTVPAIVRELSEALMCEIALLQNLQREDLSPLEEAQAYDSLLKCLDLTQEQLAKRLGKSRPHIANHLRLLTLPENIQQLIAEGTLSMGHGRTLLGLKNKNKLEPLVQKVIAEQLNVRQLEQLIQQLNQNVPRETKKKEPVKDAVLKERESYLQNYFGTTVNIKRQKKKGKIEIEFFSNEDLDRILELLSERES

[11] = target: T7, ParB(T22C, E111Q)-HT, P26497; assay: as above; conditions: chain shown with the change, read off a plot
T7 chain: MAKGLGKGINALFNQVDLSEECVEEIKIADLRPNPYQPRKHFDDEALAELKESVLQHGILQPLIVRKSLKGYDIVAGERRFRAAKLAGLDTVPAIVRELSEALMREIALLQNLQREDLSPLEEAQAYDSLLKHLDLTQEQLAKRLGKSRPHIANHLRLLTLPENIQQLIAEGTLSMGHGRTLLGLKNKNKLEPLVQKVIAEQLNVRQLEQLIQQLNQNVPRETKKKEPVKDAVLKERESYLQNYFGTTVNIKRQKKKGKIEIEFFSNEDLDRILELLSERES

[12] = parS: Δ8 (strain lacking the 8 parS sites)

Molecule: Nc1ccn([C@@H]2O[C@H](COP(=O)(O)OP(=O)(O)OP(O)(O)=S)[C@@H](O)[C@H]2O)c(=O)n1 [CTPγS]
N-gate closure by BMOE cross-linking (T22C); BLI DNA loading (ParB(E111Q) [1]): we found that the EQ mutants supported N-gate closure equally well with CTP and CTPγS
N-gate closure by BMOE cross-linking (T22C); BLI DNA loading (ParB(E78Q) [2]): we found that the EQ mutants supported N-gate closure equally well with CTP and CTPγS
BLI of ParB loading on and dissociation from parS DNA with nucleotide; N-gate cr (ParB [3]): differences in the dissociation rates between wild-type and EQ proteins were eliminated when CTPγS was used instead of CTP

Molecule: Nc1ccn([C@@H]2O[C@H](COP(=O)(O)OP(=O)(O)OP(=O)(O)O)[C@@H](O)[C@H]2O)c(=O)n1 [CTP]
Kd (ParB(E78Q) [4]): 5 to 8 µM
Kd (ParB(E111Q) [5]): 5 to 8 µM
Kd (ParB [6]): 5 to 8 µM

other: fraction of cross-linked dimers ([7]; N-N XL species): 0.57
other: fraction of cross-linked species ([7]; parS: All): 0.72
other: fraction of cross-linked species [7, 12]: 0.52
B1: ParB(T22C, E78Q) (natural protein, B. subtilis, UniProt P26497 1-282, looked up)
chain: MAKGLGKGINALFNQVDLSEECVEEIKIADLRPNPYQPRKHFDDEALAELKESVLQHGILQPLIVRKSLKGYDIVAGQRRFRAAKLAGLDTVPAIVRELSEALMREIALLENLQREDLSPLEEAQAYDSLLKHLDLTQEQLAKRLGKSRPHIANHLRLLTLPENIQQLIAEGTLSMGHGRTLLGLKNKNKLEPLVQKVIAEQLNVRQLEQLIQQLNQNVPRETKKKEPVKDAVLKERESYLQNYFGTTVNIKRQKKKGKIEIEFFSNEDLDRILELLSERES
notes: ParB, B. subtilis, untagged recombinant protein, CTP hydrolysis-defective mutant with the T22C reporter cysteine; source: E. coli BL21-Gold (DE3), purified (ammonium sulfate, heparin, HiTrap SP, Superdex 200)
binding result [8]: binds

B2: ParB(A102C, H133C) (natural protein, B. subtilis, UniProt P26497 1-282, looked up)
chain: MAKGLGKGINALFNQVDLSEETVEEIKIADLRPNPYQPRKHFDDEALAELKESVLQHGILQPLIVRKSLKGYDIVAGERRFRAAKLAGLDTVPAIVRELSECLMREIALLENLQREDLSPLEEAQAYDSLLKCLDLTQEQLAKRLGKSRPHIANHLRLLTLPENIQQLIAEGTLSMGHGRTLLGLKNKNKLEPLVQKVIAEQLNVRQLEQLIQQLNQNVPRETKKKEPVKDAVLKERESYLQNYFGTTVNIKRQKKKGKIEIEFFSNEDLDRILELLSERES
notes: ParB, B. subtilis, untagged recombinant protein with cysteines at the N-M interface; source: E. coli BL21-Gold (DE3), purified (ammonium sulfate, heparin, HiTrap SP, Superdex 200)
binding result [8]: binds

B3: ParB(R105C, H133C) (natural protein, B. subtilis, UniProt P26497 1-282, looked up)
chain: MAKGLGKGINALFNQVDLSEETVEEIKIADLRPNPYQPRKHFDDEALAELKESVLQHGILQPLIVRKSLKGYDIVAGERRFRAAKLAGLDTVPAIVRELSEALMCEIALLENLQREDLSPLEEAQAYDSLLKCLDLTQEQLAKRLGKSRPHIANHLRLLTLPENIQQLIAEGTLSMGHGRTLLGLKNKNKLEPLVQKVIAEQLNVRQLEQLIQQLNQNVPRETKKKEPVKDAVLKERESYLQNYFGTTVNIKRQKKKGKIEIEFFSNEDLDRILELLSERES
notes: as for B2
binding result [8]: binds

other: fraction of cross-linked dimers [9]: 0.77
B4: ParB-HT (wt) R105C; H133C; E78Q (protein)
chain: MAKGLGKGINALFNQVDLSEETVEEIKIADLRPNPYQPRKHFDDEALAELKESVLQHGILQPLIVRKSLKGYDIVAGQRRFRAAKLAGLDTVPAIVRELSEALMCEIALLENLQREDLSPLEEAQAYDSLLKCLDLTQEQLAKRLGKSRPHIANHLRLLTLPENIQQLIAEGTLSMGHGRTLLGLKNKNKLEPLVQKVIAEQLNVRQLEQLIQQLNQNVPRETKKKEPVKDAVLKERESYLQNYFGTTVNIKRQKKKGKIEIEFFSNEDLDRILELLSERES

B5: ParB(T22C) (natural protein, B. subtilis, UniProt P26497 1-282, looked up)
chain: MAKGLGKGINALFNQVDLSEECVEEIKIADLRPNPYQPRKHFDDEALAELKESVLQHGILQPLIVRKSLKGYDIVAGERRFRAAKLAGLDTVPAIVRELSEALMREIALLENLQREDLSPLEEAQAYDSLLKHLDLTQEQLAKRLGKSRPHIANHLRLLTLPENIQQLIAEGTLSMGHGRTLLGLKNKNKLEPLVQKVIAEQLNVRQLEQLIQQLNQNVPRETKKKEPVKDAVLKERESYLQNYFGTTVNIKRQKKKGKIEIEFFSNEDLDRILELLSERES
notes: ParB, B. subtilis, untagged recombinant protein with a cysteine at the N-gate; source: E. coli BL21-Gold (DE3), purified (ammonium sulfate, heparin, HiTrap SP, Superdex 200)
binding result [8]: binds

other: fraction of cross-linked dimers [10]: 0.2
B6: ParB-HT (wt) R105C; H133C; E111Q (protein)
chain: MAKGLGKGINALFNQVDLSEETVEEIKIADLRPNPYQPRKHFDDEALAELKESVLQHGILQPLIVRKSLKGYDIVAGERRFRAAKLAGLDTVPAIVRELSEALMCEIALLQNLQREDLSPLEEAQAYDSLLKCLDLTQEQLAKRLGKSRPHIANHLRLLTLPENIQQLIAEGTLSMGHGRTLLGLKNKNKLEPLVQKVIAEQLNVRQLEQLIQQLNQNVPRETKKKEPVKDAVLKERESYLQNYFGTTVNIKRQKKKGKIEIEFFSNEDLDRILELLSERES

other: fraction of cross-linked dimers ([11]; N-N XL species): 0.36
other: fraction of cross-linked species ([11]; parS: All): 0.49
other: fraction of cross-linked species [11, 12]: 0.45
B7: ParB(T22C, E111Q) (natural protein, B. subtilis, UniProt P26497 1-282, looked up)
chain: MAKGLGKGINALFNQVDLSEECVEEIKIADLRPNPYQPRKHFDDEALAELKESVLQHGILQPLIVRKSLKGYDIVAGERRFRAAKLAGLDTVPAIVRELSEALMREIALLQNLQREDLSPLEEAQAYDSLLKHLDLTQEQLAKRLGKSRPHIANHLRLLTLPENIQQLIAEGTLSMGHGRTLLGLKNKNKLEPLVQKVIAEQLNVRQLEQLIQQLNQNVPRETKKKEPVKDAVLKERESYLQNYFGTTVNIKRQKKKGKIEIEFFSNEDLDRILELLSERES
notes: as for B1
binding result [8]: binds
